In PMC3090699 (Amino acids, 2010):

Target: the molecule itself
Experiment: SEC

B1: methionine adenosyltransferase from Methanococcus jannaschii, wild type (enzyme, UniProt Q58605 1-406, looked up)
chain: MRNIIVKKLDVEPIEERPTEIVERKGLGHPDSICDGIAESVSRALCKMYMEKFGTILHHNTDQVELVGGHAYPKFGGGVMVSPIYILLSGRATMEILDKEKNEVIKLPVGTTAVKAAKEYLKKVLRNVDVDKDVIIDCRIGQGSMDLVDVFERQKNEVPLANDTSFGVGYAPLSTTERLVLETERFLNSDELKNEIPAVGEDIKVMGLREGKKITLTIAMAVVDRYVKNIEEYKEVIEKVRKKVEDLAKKIADGYEVEIHINTADDYERESVYLTVTGTSAEMGDDGSVGRGNRVNGLITPFRPMSMEAASGKNPVNHVGKIYNILANLIANDIAKLEGVKECYVRILSQIGKPINEPKALDIEIITEDSYDIKDIEPKAKEIANKWLDNIMEVQKMIVEGKVTTF
- stoichiometry N: 2
